The source of these data is US20120202218A1 (MODPRO, published 2012).

Data set [1] concerns the molecule itself. As to the kind of experiment: Zn2+-induced gold nanoparticle aggregation (UV-vis, TEM).
Data set [2] has as its target Human Carbonic Anhydrase II (human, UniProt P00918 2-260). As to the kind of experiment: Zn2+-induced gold nanoparticle aggregation assay, particles with 0% KE2C-C6 (JR2EC only).

B1: JR2EC (peptide)
peptide: H-NAADLEKAIEALEKHLEAKGPCDAAQLEKQLEQAFEAFERAG-OH
modifications: also: Cys22 thiol bound to gold nanoparticle surface
notes: Synthetic Glu-rich 42-residue helix-loop-helix peptide; It dimerizes and folds into a four-helix bundle at pH<6, or at pH 7 with Zn2+; Immobilized on gold nanoparticles; also called aggregating polypeptide
For the molecule B1, the binding result in data set [1] is reported as “binds”; in data set [2], “no binding (tested: 70 nM)”.
